Results as given in paper PMC8948278 (2022).

Target: Recombinant SARS-CoV-2 S trimer protein (ACRO Biosystems SPN-C52H9) (SARS-CoV-2, UniProt P0DTC2)
Test: SPR

B1: KIH format bivalent MW01 (MW01/KIH) (antibody, V domains shown)
VH: EVQLVQSGAEVKKPGSSVKVSCKASGGTFSSFSISWVRQAPGQGLEWMGRIIPVLGIANYAQEVQGRVTITADKSTSTAYMELSSLRSEDTAVYFCTTDRFVEPATGPFFDYWGQGTLVTVSS
VL: EIVMTQSPATLSVSPGERATLSCRASQSVSSNLAWYQQKPGQAPRLLIYGASTRATGIPARFSGSGSGTEFTLTISSLQSEDFAVYYCQQYSNWLTFGGGTKVEIK
- koff: 0.000408 s⁻¹
